Reference: publication PMC7764402

Molecular target: Vorin-cat (C-terminal catalytic mART domain of Vorin), wild type (Erwinia amylovora ATCC BAA-2158)
Assay: SEC; IMAC-purified Vorin-cat/VorinI (5 mg) on HiLoad 16/60 Superdex-200; fractions analysed by SDS-PAGE with Coomassie stain; dialysed against 50 mM Tris pH 7.5, 250 mM NaCl, 10% glycerol before the run

Substance: VorinI (Vorin Immunity protein) (natural protein)
- stoichiometry N (VorinI per Vorin-cat): 1
